# Source: publication PMC4980431, “Ctf4 Is a Hub in the Eukaryotic Replisome that Links Multiple CIP-Box Proteins to the CMG Helicase” (Molecular Cell, 2016)
# Where a SMILES comes first, the peptide text is derived from it.
# B1: Ctf4-4E 471–927 (domain or fragment, budding yeast, UniProt Q01454 471-927, looked up)
# chain: TGKFRYMPFSPAGTPFGFTDRRYLTMNEVGYVSTVKNSEQYSITVSFFDVGRFREYHFEDLFGYDLCFLNEKGTLFGQSKTGQIQYRPHDSIHSNWTKIIPLQAGERITSVAATPVRVIVGTSLGYFRSFNQFGVPFAVEKTSPIVALTAQNYRVFSVHYSQFHGLSYSLSELGTSSKRYYKRECPLPMSLPNINSDMKKDANLDYYNFNPMGIKSLFFSSYGDPCIFGSDNTLLLLSKWRSPEESKWLPILDSNMEIWKMSGGKETTDIHVWPLALAYDTLNCILVKGKHIWPEFPLPLPSEMEIRMPVFVKSKLLEENKAILNKKNEIGADTEAEEGEEDKEIQIPVSMAAEEEYLRSKVLSELLTDTLENDGEMYGNENEVLAALNGAYDKALERLFESACSDQNVEKALSLAHELKQDRALTEAVKESERAELPSLVKKINNIREARYEQQLK
# notes: also called Ctf4CTD 4E mutant protein; source: purified protein
# B2: Ctf4 471–927 (domain or fragment, budding yeast, UniProt Q01454 471-927, looked up)
# chain: TGKFRYMPFSPAGTPFGFTDRRYLTMNEVGYVSTVKNSEQYSITVSFFDVGRFREYHFEDLFGYDLCFLNEKGTLFGQSKTGQIQYRPHDSIHSNWTKIIPLQAGERITSVAATPVRVIVGTSLGYFRSFNQFGVPFAVEKTSPIVALTAQNYRVFSVHYSQFHGLSYSLSELGTSSKRYYKRECPLPMSLPNINSDMKKDANLDYYNFNPMGIKSLFFSSYGDPCIFGSDNTLLLLSKWRSPEESKWLPILDSNMEIWKMSGGKETTDIHVWPLALAYDTLNCILVKGKHIWPEFPLPLPSEMEIRMPVFVKSKLLEENKAILNKKNEIGADTEAEEGEEDKEIQIPVSMAAEEEYLRSKVLSELLTDTLENDGEMYGNENEVLAALNGAYDKALLRLFASACSDQNVEKALSLAHELKQDRALTAAVKISERAELPSLVKKINNIREARYEQQLK
# notes: also called Ctf4CTD; source: purified Ctf4CTD protein
# B3: Ctf4-I901E: Ctf4 with glutamate mutation of I901 (protein)
# chain: MVSVIDKLVFDFGGKTLVSLAPDNNTLCVANKNGLTKILKTNNPEEEPETLDSSKLVSSIKCYSNSHFLMTTMQGDALRYNIDSSQEELLARFALPLRDCCVIHSGKMAVFGGDDLELILLELDDETHKKHAIKIDEQVSQISYNSQMNILAVSMINGKVQIFSLTSTIPNKVHELNDYIVANSYDDTHRDKILSNMMDDIDKDNDNDLSETADPDENNVADPEFCAANRICTRVAWHPKGLHFALPCADDTVKIFSIKGYSLQKTLSTNLSSTKAHFIDLQFDPLRGTYIAAVDLNNKLTVWNWETSEIHYTREFKRKITNIAWKIQADSKTLDLVLGTWSGSIAIVQNLAESVVSNIPDQSVAESSTKHGLFVDSESDLENLEGNDDINKSDKLFSDITQEANAEDVFTQTHDGPSGLSEKRKYNFEDEEDFIDDDDGAGYISGKKPHNEHSYSRVHKTHSFPISLANTGKFRYMPFSPAGTPFGFTDRRYLTMNEVGYVSTVKNSEQYSITVSFFDVGRFREYHFEDLFGYDLCFLNEKGTLFGQSKTGQIQYRPHDSIHSNWTKIIPLQAGERITSVAATPVRVIVGTSLGYFRSFNQFGVPFAVEKTSPIVALTAQNYRVFSVHYSQFHGLSYSLSELGTSSKRYYKRECPLPMSLPNINSDMKKDANLDYYNFNPMGIKSLFFSSYGDPCIFGSDNTLLLLSKWRSPEESKWLPILDSNMEIWKMSGGKETTDIHVWPLALAYDTLNCILVKGKHIWPEFPLPLPSEMEIRMPVFVKSKLLEENKAILNKKNEIGADTEAEEGEEDKEIQIPVSMAAEEEYLRSKVLSELLTDTLENDGEMYGNENEVLAALNGAYDKALLRLFASACSDQNVEKALSLAHELKQDRALTAAVKESERAELPSLVKKINNIREARYEQQLK
# B4: tagged form of Tof2: tagged form of Tof2 expressed in budding yeast cells (protein)
# chain: MIKMWRLQIVLVPPSAQDIITFLEARLNTPQSVSPMVQYNEDIITHNNSINNCSDPSPTSPSSQNSIQSNRSSDFINYLPNCKKFLHFTDGDNTLLQLSNEILTKFDRLYPNFKESIEIVSLQDRHGCDLDSEFIIKDVFENDGVVLVILKDELDWSRNQHISLLQLARQRRRQDNKPSTKSIVTEKRKKISKEDLSSISNKDTMHLIAKSSLKNNFINKSRVSTPLMNEILPLASKYDALNKEKCPMPLTSTVVASNVHKDVKDHARAKEGVVTQGSDNNKENIPSSTQQQKNDGAKRAESKDLDLLRNSSEDADYEPADENSPQISFDSIDTDFQLSTTSHTNSDMHIQYSNPSSGAHSPRKSSLEIKVQNKKGDDLPLNDKDIGENCRRIEAFSDEEDFNETDNDRADSFINNSKKASMGFRDINSDLDSVSFNSDIENAVQSTQSTKNVVSPPFFPEKELNNRLHQSQGKEALFRLVEKEFPDKSLGAASSTSHAKDVKIQETIRKLNRFKPTGETKVQKRNSITEPYYGKFGIMKKDKPKSITSKGVSLETKHFDDPNTIISGEKFAKFGKIKVKRKTDDVGSKVIEFKRKRNMGNRSLKDIFANAGKPPNAASTIKVVKLMRDPVDNSKDKVEATSNSTAQEQEQVSPKLPVMNSTPGKRKNGQAIPSSLERTPQLKKVKVTRSHSSPSSSSSMSLESSLDSSSSDDSDDDSDSRNVQVKKINFKTSHGPAGNSNGKPMLDVDDNEINTKKYQTPKYVESDEDDQ
# modifications: left off: ProteinA, end not stated, kept
# notes: tagged form of Tof2 expressed in budding yeast cells
# Experiments:
# Ctf4 = assay: Co-purification with Ctf4 from yeast cell extracts; format: cell-based, budding yeast; details: extracts of yeast cells; S phase and G1-phase; immunoblotting
# Procedure: Figure 3 Interaction of the Type I CIP-Box Protein Dna2 with Ctf4 Is Important for rDNA Maintenance (A) GAL-DNA2-9MYC CTF4-TAP (YFV22) and GAL-DNA2-9MYC control cells (YFV21) were grown at 30°C in rich medium containing 2% galactose and then treated as in Figure 2D. The Ctf4-TAP was isolated from cell extracts on magnetic beads coupled to IgG. (B) The smallest fragment of Dna2 that interacted with Ctf4 461–927 in the two-hybrid screen (120–456 shown in red) contains a Ctf4-interacting peptide or CIP-box, closely related to those of Sld5 and Pol1 (upper). […] (C) Mutations in the CIP-box of Dna2 abolished the interaction of full-length Dna2 (1–1,522) or Dna2 120–456 to interact with Ctf4 461–927. (D) When soaked into crystals of Ctf4 471–927, the Dna2 CIP-box binds to the helical region of Ctf4, as previously observed for the CIP-boxes of Pol1 and Sld5 ([Simon et al., 2014]). […]
# Figure 4 Tof2 and Dpb2 Define a New Class of Type II CIP-Box Proteins that Bind to a Novel Binding Pocket on the Surface of Ctf4 (A) The smallest fragments of Dpb2 and Tof2 that interacted with Ctf4 461–927 in the two-hybrid screen (shown in red) were each found to contain a putative CIP-box with limited homology to the type I CIP-boxes of Sld5, Dna2, and Pol1. […] The indicated proteins were monitored by immunoblotting. […]
# Ctf4 471-927 (Ctf4CTD) = target: T1, Ctf4 471-927 (Ctf4CTD) (Saccharomyces cerevisiae, UniProt Q01454); assay: Fluorescence anisotropy, peptide binding to Ctf4 471-927; set-up: species or system budding yeast; details: legend of Figure S3C; 50 nM fluorescein-labeled Dna2 peptide, pH 7.2, 25°C; mean of three independent experiments
# T1 sequence (Q01454 471-927): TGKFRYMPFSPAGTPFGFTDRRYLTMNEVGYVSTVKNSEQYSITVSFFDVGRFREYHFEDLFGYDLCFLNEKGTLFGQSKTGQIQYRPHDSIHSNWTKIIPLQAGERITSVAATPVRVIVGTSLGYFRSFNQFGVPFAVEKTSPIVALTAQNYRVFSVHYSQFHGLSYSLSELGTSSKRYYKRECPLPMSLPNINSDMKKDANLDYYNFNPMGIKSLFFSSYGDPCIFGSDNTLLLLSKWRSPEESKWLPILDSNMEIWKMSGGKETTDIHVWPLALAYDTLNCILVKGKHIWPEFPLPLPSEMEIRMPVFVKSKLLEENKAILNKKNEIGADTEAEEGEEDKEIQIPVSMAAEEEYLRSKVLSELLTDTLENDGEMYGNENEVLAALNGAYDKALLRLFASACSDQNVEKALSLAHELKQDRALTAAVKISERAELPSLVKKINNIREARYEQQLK
# Procedure: The lowest concentration of peptide at which the binding studies could be performed was determined via peptide calibration curves. Fluorescence anisotropy measurements were recorded in a PHERAstar Plus multi-detection plate reader (BMG Labtech) equipped with fluorescence polarization optic module (λex = 485 nm; λem = 520 nm) at 25°C. Each data point is the mean of 200 flashes/well. The voltage gain was set by adjusting the target mP values of fluorescein-labeled peptides relative to that of fluorescein (35 mP). Serial dilutions of Ctf4CTD were made in 20 mM HEPES (pH 7.2), 140 mM KCl, and 5% (w/v) glycerol in the presence of 40 nM (Sld5 and Tof2) or 50 nM (Dna2) fluorescein-labeled peptide. For Dna2 peptide, each data point is the mean of three independent experiments and curve fitting to the experimental data was performed in pro Fit 6.2 (QuantumSoft) using a Levenberg-Marquardt fitting algorithm in combination with a Gaussian error distribution analysis.
# [1] = system: budding yeast cells (W303 background); assay: Yeast growth in the presence of hydroxyurea; format: cell-based
# Procedure: (§1) Yeast growth, two-hybrid analysis, and immunoprecipitation experiments were performed as described in detail previously ([Maculins et al., 2015], [Maric et al., 2014]). A two-hybrid screen against amino acids 461–927 of Ctf4 was performed by the company Hybrigenics.
# [2] = target: the molecule itself; assay: SEC-MALS; 100 μl at 2 mg/ml on Superdex S200 HR 10/300 in 20 mM HEPES pH 7.2, 160 mM NaCl, 0.5 ml/min
# CMG helicase = assay: Co-purification with CMG helicase from yeast cell extracts; format: cell-based, budding yeast; details: extracts of S phase yeast cells; immunoprecipitation, immunoblotting
# Procedure: (D) Cultures of ctf4-4E MCM4-9MYC (YFV13) and MCM4-9MYC control cells (YSS75) were synchronized in G1-phase at 30°C and then released into S phase for 20 min. The Mcm4-9MYC was isolated from cell extracts by immunoprecipitation and the associated proteins monitored by immunoblotting. (E) ctf4-4E is synthetic lethal with mrc1Δ. The cells were processed as in Figure 1A, and the photos in the lower images were taken after 20 hr growth at 30°C (the scale bars represent 50 μm). See also Figure S2. TEXT PRINTED IN THE PICTURE: (C) Ctf4-4E (471-927): 162 kDa
# as §1
molecule,measurement,setting,value
"nuclease/helicase Dna2: multi-functional nuclease/helicase Dna2, expressed in yeast cells",co-purification with Ctf4 (in words),Ctf4,co-purified with Ctf4
CC[C@H](C)[C@H](NC(=O)[C@H](CC(=O)O)NC(=O)[C@H](CC(=O)O)NC(=O)[C@H](CC(C)C)NC(=O)[C@@H](NC(=O)[C@H](CC(=O)O)NC(=O)[C@H](CC(=O)O)NC(=O)[C@@H](NC(=O)[C@H](CC(N)=O)NC(=O)[C@H](CCCNC(=N)N)NC(=O)[C@H](CC(C)C)NC(=O)[C@@H](N)CO)[C@@H](C)CC)[C@@H](C)CC)C(=O)N[C@@H](CCC(=O)O)C(=O)NCC(=O)N[C@@H](CC(=O)O)C(=O)N[C@@H](CC(C)C)C(=O)N[C@H](C(=O)O)[C@@H](C)O [Dna2 peptide (207-223)] (H-SLRNIDDILDDIEGDLT-OH),Kd,Ctf4 471-927 (Ctf4CTD),229 µM
NC(=O)NO [hydroxyurea],"sensitivity to hydroxyurea, ctf4-3E cells (in words)","[1]; ctf4-3E cells compared with ctf4Δ, Figure 5F",do not share the sensitivity of ctf4Δ cells
same,"sensitivity to hydroxyurea, pol1-4A cells (in words)","[1]; pol1-4A cells, in contrast to ctf4Δ, Figure 1B",does not cause sensitivity
B1,stoichiometry N,[2],3
B2,stoichiometry N,[2],3
B3,association with CMG helicase (in words),CMG helicase,unable to interact with the CMG helicase
B4,co-purification with Ctf4 (in words),Ctf4,co-purified with Ctf4 in both G1-phase and S phase
same,association with CMG helicase (in words),CMG helicase,co-purified with the CMG helicase during S phase
